The results in this text go back to patent publication US20230357348A1 (AstraZeneca / MedImmune, published 2023).

Starred links: 1 amine or outer side, 2 acyl side, 3 side chain; linkers in the order of their positions; H or OH if unused. Non-standard residues stand in square brackets, D forms with d. Groups on a side chain read outwards from the residue. No end group written: not given here. *: point of attachment. Bip = N[C@@H](Cc1ccc(-c2ccccc2)cc1)C(=O)O; C18 diacid = O=C(O)CCCCCCCCCCCCCCCCC(=O)*; γGlu = O=C(O)[C@H](CCC(=O)[*:2])N[*:1]; αMeF = C[C@](N)(Cc1ccccc1)C(=O)O; AEEA = NCCOCCOCC(=O)O; Aib = CC(C)(N)C(=O)O

Assay [1] addresses human GLP-1 receptor (hGLP-1R) (human, UniProt P43220 24-463). Kind of assay: cell-based or functional assay.
Assay [2] addresses human glucagon receptor (hGCGR) (human, UniProt P47871 26-477). The experiment in a line: cell-based or functional assay.

Sequence of human glucagon receptor (hGCGR) (P47871 26-477): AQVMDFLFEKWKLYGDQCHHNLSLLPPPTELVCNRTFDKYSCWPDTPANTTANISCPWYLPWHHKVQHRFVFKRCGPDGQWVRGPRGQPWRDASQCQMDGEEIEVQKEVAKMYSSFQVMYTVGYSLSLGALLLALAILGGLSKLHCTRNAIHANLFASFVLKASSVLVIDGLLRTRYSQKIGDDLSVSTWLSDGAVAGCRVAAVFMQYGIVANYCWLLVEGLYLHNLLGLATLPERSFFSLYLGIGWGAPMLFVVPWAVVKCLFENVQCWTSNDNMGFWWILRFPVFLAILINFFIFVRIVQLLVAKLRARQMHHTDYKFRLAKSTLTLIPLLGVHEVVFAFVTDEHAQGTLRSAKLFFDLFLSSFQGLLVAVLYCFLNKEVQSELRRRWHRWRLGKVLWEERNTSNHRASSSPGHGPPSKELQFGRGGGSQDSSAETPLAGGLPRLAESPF

B1: Peptide 428 (peptide)
peptide: H[Aib]QGTFTSDVSK[αMeF]LDTK([AEEA-AEEA-γGlu-γGlu-C18 diacid])RARDFVQWLLE[Aib]G
modifications: not fully specified (C-terminus)
In the case of B1, the “hGLP-1R EC50 (pM)” value in assay [1] amounted to 33.1 pM. For the same molecule, the “hGluc-R EC50 (pM)” value in assay [2] was determined as 10.5 pM.

B2: Peptide 429 (peptide)
peptide: H[Aib]QGTFTSDVSK[αMeF]LDSK([AEEA-AEEA-γGlu-C18 diacid])RAQDFVRWLEA[Aib]G-NH2
modifications: N-terminus assumed
SMILES: CC(C)C[C@H](NC(=O)[C@H](Cc1c[nH]c2ccccc12)NC(=O)[C@H](CCCNC(=N)N)NC(=O)[C@@H](NC(=O)[C@H](Cc1ccccc1)NC(=O)[C@H](CC(=O)O)NC(=O)[C@H](CCC(N)=O)NC(=O)[C@H](C)NC(=O)[C@H](CCCNC(=N)N)NC(=O)[C@H](CCCCNC(=O)COCCOCCNC(=O)COCCOCCNC(=O)CC[C@H](NC(=O)CCCCCCCCCCCCCCCCC(=O)O)C(=O)O)NC(=O)[C@H](CO)NC(=O)[C@H](CC(=O)O)NC(=O)[C@H](CC(C)C)NC(=O)[C@](C)(Cc1ccccc1)NC(=O)[C@H](CCCCN)NC(=O)[C@H](CO)NC(=O)[C@@H](NC(=O)[C@H](CC(=O)O)NC(=O)[C@H](CO)NC(=O)[C@@H](NC(=O)[C@H](Cc1ccccc1)NC(=O)[C@@H](NC(=O)CNC(=O)[C@H](CCC(N)=O)NC(=O)C(C)(C)NC(=O)[C@@H](N)Cc1c[nH]cn1)[C@@H](C)O)[C@@H](C)O)C(C)C)C(C)C)C(=O)N[C@@H](CCC(=O)O)C(=O)N[C@@H](C)C(=O)NC(C)(C)C(=O)NCC(N)=O
For the molecule B2, the “hGLP-1R EC50 (pM)” value in assay [1] was 15 pM. Moreover, the “hGluc-R EC50 (pM)” value in assay [2] amounted to 144 pM.

B3: Peptide 425 (peptide)
peptide: H[Aib]QGTFTSDVSK[αMeF]LDKK([AEEA-AEEA-γGlu-C18 diacid])RAQDFVRWLKA[Aib]G-OH
modifications: N-terminus assumed
SMILES: CC(C)C[C@H](NC(=O)[C@H](Cc1c[nH]c2ccccc12)NC(=O)[C@H](CCCNC(=N)N)NC(=O)[C@@H](NC(=O)[C@H](Cc1ccccc1)NC(=O)[C@H](CC(=O)O)NC(=O)[C@H](CCC(N)=O)NC(=O)[C@H](C)NC(=O)[C@H](CCCNC(=N)N)NC(=O)[C@H](CCCCNC(=O)COCCOCCNC(=O)COCCOCCNC(=O)CC[C@H](NC(=O)CCCCCCCCCCCCCCCCC(=O)O)C(=O)O)NC(=O)[C@H](CCCCN)NC(=O)[C@H](CC(=O)O)NC(=O)[C@H](CC(C)C)NC(=O)[C@](C)(Cc1ccccc1)NC(=O)[C@H](CCCCN)NC(=O)[C@H](CO)NC(=O)[C@@H](NC(=O)[C@H](CC(=O)O)NC(=O)[C@H](CO)NC(=O)[C@@H](NC(=O)[C@H](Cc1ccccc1)NC(=O)[C@@H](NC(=O)CNC(=O)[C@H](CCC(N)=O)NC(=O)C(C)(C)NC(=O)[C@@H](N)Cc1c[nH]cn1)[C@@H](C)O)[C@@H](C)O)C(C)C)C(C)C)C(=O)N[C@@H](CCCCN)C(=O)N[C@@H](C)C(=O)NC(C)(C)C(=O)NCC(=O)O
On to B3, for which the “hGLP-1R EC50 (pM)” value in assay [1] is 11.5 pM. Besides, in assay [2], the “hGluc-R EC50 (pM)” value worked out at 827 pM.

B4: Peptide 431 (peptide)
peptide: H[Aib]QGTFTSDVSK[αMeF]LDTK([AEEA-AEEA-γGlu-γGlu-C18 diacid])RAQDFVAWLEA[Aib]G-NH2
modifications: N-terminus assumed
SMILES: CC(C)C[C@H](NC(=O)[C@H](Cc1c[nH]c2ccccc12)NC(=O)[C@H](C)NC(=O)[C@@H](NC(=O)[C@H](Cc1ccccc1)NC(=O)[C@H](CC(=O)O)NC(=O)[C@H](CCC(N)=O)NC(=O)[C@H](C)NC(=O)[C@H](CCCNC(=N)N)NC(=O)[C@H](CCCCNC(=O)COCCOCCNC(=O)COCCOCCNC(=O)CC[C@H](NC(=O)CC[C@H](NC(=O)CCCCCCCCCCCCCCCCC(=O)O)C(=O)O)C(=O)O)NC(=O)[C@@H](NC(=O)[C@H](CC(=O)O)NC(=O)[C@H](CC(C)C)NC(=O)[C@](C)(Cc1ccccc1)NC(=O)[C@H](CCCCN)NC(=O)[C@H](CO)NC(=O)[C@@H](NC(=O)[C@H](CC(=O)O)NC(=O)[C@H](CO)NC(=O)[C@@H](NC(=O)[C@H](Cc1ccccc1)NC(=O)[C@@H](NC(=O)CNC(=O)[C@H](CCC(N)=O)NC(=O)C(C)(C)NC(=O)[C@@H](N)Cc1c[nH]cn1)[C@@H](C)O)[C@@H](C)O)C(C)C)[C@@H](C)O)C(C)C)C(=O)N[C@@H](CCC(=O)O)C(=O)N[C@@H](C)C(=O)NC(C)(C)C(=O)NCC(N)=O
Regarding B4, the “hGLP-1R EC50 (pM)” value in assay [1] worked out at 44.6 pM. In addition, the “hGluc-R EC50 (pM)” value in assay [2] was found to be 194 pM.

B5: Peptide 432 (peptide)
peptide: H[Aib]QGTFTSDVSK[αMeF]LDSK([AEEA-AEEA-γGlu-C18 diacid])RAQDFVR[Bip]LL[Aib]E-OH
modifications: N-terminus assumed
SMILES: CC(C)C[C@H](NC(=O)[C@H](Cc1ccc(-c2ccccc2)cc1)NC(=O)[C@H](CCCNC(=N)N)NC(=O)[C@@H](NC(=O)[C@H](Cc1ccccc1)NC(=O)[C@H](CC(=O)O)NC(=O)[C@H](CCC(N)=O)NC(=O)[C@H](C)NC(=O)[C@H](CCCNC(=N)N)NC(=O)[C@H](CCCCNC(=O)COCCOCCNC(=O)COCCOCCNC(=O)CC[C@H](NC(=O)CCCCCCCCCCCCCCCCC(=O)O)C(=O)O)NC(=O)[C@H](CO)NC(=O)[C@H](CC(=O)O)NC(=O)[C@H](CC(C)C)NC(=O)[C@](C)(Cc1ccccc1)NC(=O)[C@H](CCCCN)NC(=O)[C@H](CO)NC(=O)[C@@H](NC(=O)[C@H](CC(=O)O)NC(=O)[C@H](CO)NC(=O)[C@@H](NC(=O)[C@H](Cc1ccccc1)NC(=O)[C@@H](NC(=O)CNC(=O)[C@H](CCC(N)=O)NC(=O)C(C)(C)NC(=O)[C@@H](N)Cc1c[nH]cn1)[C@@H](C)O)[C@@H](C)O)C(C)C)C(C)C)C(=O)N[C@@H](CC(C)C)C(=O)NC(C)(C)C(=O)N[C@@H](CCC(=O)O)C(=O)O
Regarding B5, the “hGLP-1R EC50 (pM)” value in assay [1] is 1380 pM. In assay [2], the “hGluc-R EC50 (pM)” value worked out at 1160 pM.

B6: Peptide 430 (peptide)
peptide: H[Aib]QGTFTSDVSK[αMeF]LDSK([AEEA-AEEA-γGlu-γGlu-C18 diacid])RAQDFVRWLEA[Aib]G-NH2
modifications: N-terminus assumed
SMILES: CC(C)C[C@H](NC(=O)[C@H](Cc1c[nH]c2ccccc12)NC(=O)[C@H](CCCNC(=N)N)NC(=O)[C@@H](NC(=O)[C@H](Cc1ccccc1)NC(=O)[C@H](CC(=O)O)NC(=O)[C@H](CCC(N)=O)NC(=O)[C@H](C)NC(=O)[C@H](CCCNC(=N)N)NC(=O)[C@H](CCCCNC(=O)COCCOCCNC(=O)COCCOCCNC(=O)CC[C@H](NC(=O)CC[C@H](NC(=O)CCCCCCCCCCCCCCCCC(=O)O)C(=O)O)C(=O)O)NC(=O)[C@H](CO)NC(=O)[C@H](CC(=O)O)NC(=O)[C@H](CC(C)C)NC(=O)[C@](C)(Cc1ccccc1)NC(=O)[C@H](CCCCN)NC(=O)[C@H](CO)NC(=O)[C@@H](NC(=O)[C@H](CC(=O)O)NC(=O)[C@H](CO)NC(=O)[C@@H](NC(=O)[C@H](Cc1ccccc1)NC(=O)[C@@H](NC(=O)CNC(=O)[C@H](CCC(N)=O)NC(=O)C(C)(C)NC(=O)[C@@H](N)Cc1c[nH]cn1)[C@@H](C)O)[C@@H](C)O)C(C)C)C(C)C)C(=O)N[C@@H](CCC(=O)O)C(=O)N[C@@H](C)C(=O)NC(C)(C)C(=O)NCC(N)=O
Take B6: in assay [1], the “hGLP-1R EC50 (pM)” value came to 24.4 pM. In assay [2], the “hGluc-R EC50 (pM)” value worked out at 160 pM.

B7: Peptide 427 (peptide)
peptide: H[Aib]QGTFTSDVSK[αMeF]LDTK([AEEA-AEEA-γGlu-C18 diacid])RARDFVQWLLE[Aib]G
modifications: not fully specified (C-terminus)
Take B7: the “hGLP-1R EC50 (pM)” value in assay [1] stood at 12.4 pM. For the same molecule, the “hGluc-R EC50 (pM)” value in assay [2] worked out at 47.2 pM.

B8: Peptide 424 (peptide)
peptide: H[Aib]QGTFTSDVSK[αMeF]LDKK([AEEA-AEEA-γGlu-C18 diacid])RAQDFVRWLL[Aib]TK-OH
modifications: N-terminus assumed
SMILES: CC(C)C[C@H](NC(=O)[C@H](Cc1c[nH]c2ccccc12)NC(=O)[C@H](CCCNC(=N)N)NC(=O)[C@@H](NC(=O)[C@H](Cc1ccccc1)NC(=O)[C@H](CC(=O)O)NC(=O)[C@H](CCC(N)=O)NC(=O)[C@H](C)NC(=O)[C@H](CCCNC(=N)N)NC(=O)[C@H](CCCCNC(=O)COCCOCCNC(=O)COCCOCCNC(=O)CC[C@H](NC(=O)CCCCCCCCCCCCCCCCC(=O)O)C(=O)O)NC(=O)[C@H](CCCCN)NC(=O)[C@H](CC(=O)O)NC(=O)[C@H](CC(C)C)NC(=O)[C@](C)(Cc1ccccc1)NC(=O)[C@H](CCCCN)NC(=O)[C@H](CO)NC(=O)[C@@H](NC(=O)[C@H](CC(=O)O)NC(=O)[C@H](CO)NC(=O)[C@@H](NC(=O)[C@H](Cc1ccccc1)NC(=O)[C@@H](NC(=O)CNC(=O)[C@H](CCC(N)=O)NC(=O)C(C)(C)NC(=O)[C@@H](N)Cc1c[nH]cn1)[C@@H](C)O)[C@@H](C)O)C(C)C)C(C)C)C(=O)N[C@@H](CC(C)C)C(=O)NC(C)(C)C(=O)N[C@H](C(=O)N[C@@H](CCCCN)C(=O)O)[C@@H](C)O
As for B8, the “hGLP-1R EC50 (pM)” value in assay [1] was 15.5 pM. Also, the “hGluc-R EC50 (pM)” value in assay [2] amounted to 129 pM.

B9: Peptide 426 (peptide)
peptide: H[Aib]QGTFTSDVSK[αMeF]LDKK([AEEA-AEEA-γGlu-C18 diacid])RAQDFVRWLLR[Aib]K-OH
modifications: N-terminus assumed
SMILES: CC(C)C[C@H](NC(=O)[C@H](Cc1c[nH]c2ccccc12)NC(=O)[C@H](CCCNC(=N)N)NC(=O)[C@@H](NC(=O)[C@H](Cc1ccccc1)NC(=O)[C@H](CC(=O)O)NC(=O)[C@H](CCC(N)=O)NC(=O)[C@H](C)NC(=O)[C@H](CCCNC(=N)N)NC(=O)[C@H](CCCCNC(=O)COCCOCCNC(=O)COCCOCCNC(=O)CC[C@H](NC(=O)CCCCCCCCCCCCCCCCC(=O)O)C(=O)O)NC(=O)[C@H](CCCCN)NC(=O)[C@H](CC(=O)O)NC(=O)[C@H](CC(C)C)NC(=O)[C@](C)(Cc1ccccc1)NC(=O)[C@H](CCCCN)NC(=O)[C@H](CO)NC(=O)[C@@H](NC(=O)[C@H](CC(=O)O)NC(=O)[C@H](CO)NC(=O)[C@@H](NC(=O)[C@H](Cc1ccccc1)NC(=O)[C@@H](NC(=O)CNC(=O)[C@H](CCC(N)=O)NC(=O)C(C)(C)NC(=O)[C@@H](N)Cc1c[nH]cn1)[C@@H](C)O)[C@@H](C)O)C(C)C)C(C)C)C(=O)N[C@@H](CC(C)C)C(=O)N[C@@H](CCCNC(=N)N)C(=O)NC(C)(C)C(=O)N[C@@H](CCCCN)C(=O)O
On to B9, for which the “hGLP-1R EC50 (pM)” value in assay [1] was 7.3 pM. In addition, in assay [2], the “hGluc-R EC50 (pM)” value is 61.2 pM.
